Results on two molecules are retold here after doi:10.1101/2020.09.06.285171.

In this assay the target is EGFP-MYO10-MYO7B chimeric myosin (Bos taurus (Bt) | human (Hs)) (UniProt P79114). The assay is described as follows: in-cell filopodial tip enrichment assay with a chimeric myosin.
Chain of UniProt P79114 (P79114 whole entry, change not shown): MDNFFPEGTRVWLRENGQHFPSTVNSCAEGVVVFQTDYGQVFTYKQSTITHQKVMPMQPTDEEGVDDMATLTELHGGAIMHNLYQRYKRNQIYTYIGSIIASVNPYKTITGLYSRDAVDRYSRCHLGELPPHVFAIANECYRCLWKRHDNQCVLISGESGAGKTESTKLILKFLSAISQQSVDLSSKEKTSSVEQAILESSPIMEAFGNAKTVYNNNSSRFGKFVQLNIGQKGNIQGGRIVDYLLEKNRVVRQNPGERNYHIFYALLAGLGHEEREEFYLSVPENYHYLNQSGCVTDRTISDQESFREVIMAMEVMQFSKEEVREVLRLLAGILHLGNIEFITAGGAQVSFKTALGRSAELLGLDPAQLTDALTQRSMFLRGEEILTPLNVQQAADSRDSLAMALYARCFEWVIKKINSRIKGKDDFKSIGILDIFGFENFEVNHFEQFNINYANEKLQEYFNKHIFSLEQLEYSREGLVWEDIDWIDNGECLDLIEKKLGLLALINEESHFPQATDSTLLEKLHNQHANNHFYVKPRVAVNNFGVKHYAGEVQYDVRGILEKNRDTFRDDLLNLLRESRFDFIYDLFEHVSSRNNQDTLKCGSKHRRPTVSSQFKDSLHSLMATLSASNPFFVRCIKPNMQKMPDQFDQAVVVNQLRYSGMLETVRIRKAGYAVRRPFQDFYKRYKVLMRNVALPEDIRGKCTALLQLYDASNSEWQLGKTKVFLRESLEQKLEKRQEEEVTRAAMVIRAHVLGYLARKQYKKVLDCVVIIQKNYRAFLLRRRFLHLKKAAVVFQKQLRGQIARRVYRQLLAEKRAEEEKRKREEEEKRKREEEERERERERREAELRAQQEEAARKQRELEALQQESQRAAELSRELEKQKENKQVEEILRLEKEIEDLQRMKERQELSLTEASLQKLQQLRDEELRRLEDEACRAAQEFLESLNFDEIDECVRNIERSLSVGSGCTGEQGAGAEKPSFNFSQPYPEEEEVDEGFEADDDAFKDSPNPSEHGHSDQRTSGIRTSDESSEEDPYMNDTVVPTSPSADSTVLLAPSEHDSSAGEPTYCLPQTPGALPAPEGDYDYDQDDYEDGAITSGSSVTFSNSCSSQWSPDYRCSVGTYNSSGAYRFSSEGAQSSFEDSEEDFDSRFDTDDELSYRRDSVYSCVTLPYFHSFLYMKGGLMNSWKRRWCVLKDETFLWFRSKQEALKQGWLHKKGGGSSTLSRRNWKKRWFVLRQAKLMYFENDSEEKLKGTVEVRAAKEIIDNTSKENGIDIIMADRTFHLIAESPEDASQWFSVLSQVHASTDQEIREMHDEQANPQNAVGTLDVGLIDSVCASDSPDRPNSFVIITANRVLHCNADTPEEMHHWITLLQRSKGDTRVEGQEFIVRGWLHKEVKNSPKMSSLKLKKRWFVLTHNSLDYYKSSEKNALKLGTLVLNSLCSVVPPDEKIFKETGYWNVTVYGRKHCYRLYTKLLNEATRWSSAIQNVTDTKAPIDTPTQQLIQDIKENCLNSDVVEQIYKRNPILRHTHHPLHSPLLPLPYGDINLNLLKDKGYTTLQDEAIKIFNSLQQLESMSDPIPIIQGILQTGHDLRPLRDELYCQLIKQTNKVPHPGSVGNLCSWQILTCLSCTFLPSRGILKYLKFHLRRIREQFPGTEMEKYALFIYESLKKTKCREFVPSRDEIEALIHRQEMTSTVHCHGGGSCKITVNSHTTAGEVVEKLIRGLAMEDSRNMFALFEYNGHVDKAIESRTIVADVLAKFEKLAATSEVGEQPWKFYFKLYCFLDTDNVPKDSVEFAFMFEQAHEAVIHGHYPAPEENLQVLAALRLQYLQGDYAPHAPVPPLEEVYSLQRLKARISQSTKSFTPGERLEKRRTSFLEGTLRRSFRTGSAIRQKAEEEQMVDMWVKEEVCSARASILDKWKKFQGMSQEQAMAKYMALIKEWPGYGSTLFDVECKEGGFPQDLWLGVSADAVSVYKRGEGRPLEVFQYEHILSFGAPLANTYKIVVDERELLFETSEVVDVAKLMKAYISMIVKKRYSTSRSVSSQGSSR

B1: mCherry-ANKS4B (ankyrin repeat and sterile a motif domain containing 4B) (natural protein)
chain: MSTRYHQAASDSYLELLKEATKRDLNLSDEDGMTPTLLAAYHGNLEALEIICSRGGDPDRCDIWGNTPLHFAASNGHAHCVSFLVNFGANIFALDNDLQTPLDAAASREQNECVALLDKAATAQNIMNPKKVTRLKEQAQKNARRQIKECERLQEKHQNKMAHTYSKEESGTLSSSKGTFSRSSPSNASAPGTFGSLSKGIKDTFKIKFKKNKDTAEQVGKEGRSGQRNVMEVFREEEEDSFSGDFKEKLQLSAEEDGSVHHESILNRPGLGSIVFRRNRISSPEDISDSKREFGFKLPSELLQRQGASEADEGAADEEGEENGLKDDLPWDDDEVEWEEDVVDATPLEVFLLSQHLEEFLPIFKREQIDLEALLLCSDEDLQSIQMQLGPRKKVLNAINRRKQVLQQPGQLVDTSL
In turn, B1 returned a fold enrichment at filopodial tips relative to MYO10MD of 3 fold.

B2: mCherry-USH1C (harmonin/Usher syndrome 1C) (natural protein)
chain: MDRKVAREFRHKVDFLIENDAEKDYLYDVLRMYHQTMDVAVLVGDLKLVINEPSRLPLFDAIRPLIPLKHQVEYDQLTPRRSRKLKEVRLDRLHPEGLGLSVRGGLEFGCGLFISHLIKGGQADSVGLQVGDEIVRINGYSISSCTHEEVINLIRTKKTVSIKVRHIGLIPVKSSPDEPLTWQYVDQFVSESGGVRGSLGSPGNRENKEKKVFISLVGSRGLGCSISSGPIQKPGIFISHVKPGSLSAEVGLEIGDQIVEVNGVDFSNLDHKEAVNVLKSSRSLTISIVAAAGRELFMTDRERLAEARQRELQRQELLMQKRLAMESNKILQEQQEMERQRRKEIAQKAAEENERYRKEMEQIVEEEEKFKKQWEEDWGSKEQLLLPKTITAEVHPVPLRKPKYDQGVEPELEPADDLDGGTEEQGEQDFRKYEEGFDPYSMFTPEQIMGKDVRLLRIKKEGSLDLALEGGVDSPIGKVVVSAVYERGAAERHGGIVKGDEIMAINGKIVTDYTLAEAEAALQKAWNQGGDWIDLVVAVCPPKEYDDELTFF
With B2, the fold enrichment at filopodial tips relative to MYO10MD amounted to 3 fold.
